# Laboratory results from patent publication US20070099822A1, “Regulation of tissue mineralization and phosphate metabolism by asarm peptides” (priority 2003, published 2007).
# Tested on: Male ICR-Swiss mice
# Experiment: Intraperitoneal administration of Hu-MEPE and PTH (1-34) into mice, serum and urine assays
# Assay type: in vivo
# Conditions: for serum phosphate: vehicle 11.94; for serum 1,25-dihydroxy vitamin-D3: vehicle 25.2; for serum alkaline phosphatase: vehicle 65.06
# Protocol: Intraperitoneal administration of Hu-MEPE and PTH (1-34) into mice. Male ICR-Swiss mice were used as recipients for intraperitoneal administration (100 μl) of 0.1% phosphate-buffered saline/0.1% bovine serum albumin (vehicle) and experimental conditions (Hu-MEPE and PTH 1-34) dissolved in 100 μL of vehicle. Two separate (repeat) experiments were conducted consisting of four groups with 6 and 7 animals per group. The control group was administered with 100 μL of vehicle (Group-1). Group-2 consisted of animals administered with 0.8 μg/injection of parathyroid hormone (PTH 1-34). Group 3 were injected with 0.4 μg/injection of Hu-MEPE and Group-4 with 4 μg/injection of Hu-MEPE. On day one, three bolus injections were given at 0, 3 h, and 6 h. Serum samples were then collected via retro-orbital bleed one hour after the 6 h bolus administration. The next day or 30 hours after the first bolus a fourth bolus (same amount) was given and after 1 h the animals were sacrificed and serum prepared after cardiac exsanguination. The total amounts of PTH and MEPE administered over the 30 h were 80 μg/kg/30 h PTH 1-34, 40 μg/kg/30 h Hu-MEPE (MEPE-40) and 400 μg/kg/30 h Hu-MEPE (MEPE-400). Each group was placed in a separate metabolic cage and urine was collected for the 6-hour period. After the first 6-hour urine collection mice were replaced in thoroughly cleaned metabolic cages for the remaining 24 hours. The second 24-hour urine was collected immediately after the animals were sacrificed. The urine volumes for the second and first collections were measured. Collecting urine samples from large numbers of small mice over the time frame of the experiment was not feasible. Therefore, urine samples from each group (n=7) were pooled and volumes measured via a specially designed collecting duct in the metabolic cage. To ensure reproducibility the experiment was repeated twice (the same changes occurred). To calculate the fractional excretion of phosphate (FEP) the following equation was used: 100−(100×(1−(A/B))) where A=(urine phosphorus in mg/dL)×(serum creatinine in mg/dL) and B=(urine creatinine in mg/dL)×(serum phosphorus in mg/dL). To calculate renal phosphorus clearance (RPC) in mL/minute following computation was used: (urine phosphorus in mg/dL)×(urinary volume in mL)/((serum phosphorus in mg/dL)×(time of collection in minutes)). The phosphate excretion index (PEI) was calculated using the same method described by Shimada et al. (Cloning and characterization of FGF23 as a causative factor of tumor-induced osteomalacia, Proc Natl Acad Sci USA 98:6500-6505, 2001) using the following formula: ((urinary concentration of phosphorus in mg/dL)/(serum concentration of phosphorus in mg/dL))/(total urinary creatinine in mg).
# Serum and urine assays. Serum and urine assays for phosphate, calcium, chloride, potassium, creatinine, glucose and alkaline phosphatase were accomplished using 96 well format KC4-spectrophotometer multiplate kinetic/end-point analyses using routine methods and diagnostic-kits Sigma-Diagnostics). Serum 1,25-dihydroxy vitamin-D3 levels were estimated using the method of Reinhardt, et al. (A microassay for 1,25-dihydroxyvitamin D not requiring high performance liquid chromatography: application to clinical studies, J Clin Endocrinol Metab 58:91-98, 1984). Analysis of data for fractional excretion of phosphate (FEP) was carried out following the same method described previously by Shimada et al. (Mutant FGF-23 responsible for autosomal dominant hypophosphatemic rickets is resistant to proteolytic cleavage and causes hypophosphatemia in vivo, Endocrinology 143:3179-82, 2002) for FGF23 bolus administration studies and by Nesbitt et al. (Crosstransplantation of kidneys in normal and Hyp mice: Evidence that the Hyp mouse phenotype is unrelated to an intrinsic renal defect, J Clin Invest 89:1453-59, 1992) for renal cross-transplantation experiments in Hyp mice.
# Statistical methods. […]
molecule,measurement,setting,value
Hu-MEPE: purified insect expressed full-length recombinant human MEPE (Matrix Extracellular Phosphoglycoprotein) (protein) PTFQPQTEKTKQSCVEEQRQEEKNKDNIGFHHLGKRINQELSSKENIVQERKKDLSLSEASENKGSSKSQNYFTNRQRLNKEYSISNKENTHNGLRMSIYPKSTGNKGFEDGDDAISKLHDQEEYGAALIRNNMQHIMGPVTAIKLLGEENKENTPRNVLNIIPASMNYAKAHSKDKKKPQRDSQAQKSPVKSKSTHRIQHNIDYLKHLSKVKKIPSDFEGSGYTDLQERGDNDISPFSGDGQPFKDIPGKGEATGPDLEGKDIQTGFAGPSEAESTHLDTKKPGYNEIPEREENGGNTIGTRDETAKEADAVDVSLVEGSNDIMGSTNFKELPGREGNRVDAGSQNAHQGKVEFHYPPAPSKEKRKEGSSDAAESTNYNEIPKNGKGSTRKGVDHSNRNQATLNEKQRFPSKGKSQGLPIPSRGLDNEIKNEMDSFNGPSHENIITHGRKYHYVPHRQNNSTRNKGMPQGKGSWGRQPHSNRRFSSRRRDDSSESSDSGSSSESDGD,urine phosphate,"7 h, MEPE-40 i.p., vehicle 31.8",41.0 mg/dL
same,fractional excretion of phosphate (FEP),"7 h, MEPE-400, vehicle 7.8%",14.43%
same,urine phosphate,"7 h, MEPE-400 i.p., vehicle 31.8",56.1 mg/dL
same,serum phosphate,"31 h, MEPE-40 (40 ug/kg/30 h) i.p., not statistically significant",10.6 mg/dL
same,"serum 1,25-dihydroxy vitamin-D3","31 h, MEPE-40, pooled",31.5 pg/mL
same,serum alkaline phosphatase,"31 h, MEPE-40",45.63 U/L
same,"serum 1,25-dihydroxy vitamin-D3","31 h, MEPE-400, pooled",45.05 pg/mL
same,fractional excretion of phosphate (FEP),"31 h, MEPE-400, vehicle 28.7%",65.0%
same,serum alkaline phosphatase,"31 h, MEPE-400",46.31 U/L
same,urine phosphate vs vehicle,"31 h, low-dose MEPE-40",not significantly different
same,serum phosphate,"31 hours, MEPE-400 (400 ug/kg/30 h) i.p.",8.23 mg/dL
same,urine phosphate,"31 h second urine, MEPE400, vehicle 175.9",297.4 mg/dL
same,serum phosphate vs vehicle,"after 7 hours, i.p., PTH and MEPE animals",no significant differences
same,serum calcium vs vehicle,"after 7 hours, PTH 80 ug/kg/30 h, low Hu-MEPE dose",not significantly different
same,FEP vs vehicle,low dose MEPE-40,not significantly different
